According to article PMC5622069:
Blank lines part the entries; values can stand above or below the substance they belong to.

What was measured:
[1] = molecular target: MnxG (Bacillus sp. PL-12); assay: native MS; surface-induced dissociation (SID) of the isolated 29+ Mnx complex at a low collision voltage of 40 V, ion mobility-MS; hexamer assigned after removal of most bound copper with EDTA
[2] = molecular target: MnxF (Bacillus sp. PL-12); assay: as above

- stoichiometry N (MnxF per MnxG) [1]: 3
Substance: MnxF (natural protein)

- stoichiometry N (MnxE per MnxF (3:3)) [2]: 1
- stoichiometry N (MnxE per MnxG) [1]: 3
Substance: MnxE (natural protein)

- stoichiometry N (MnxG per hexamer) [1]: 1
Substance: MnxE3F3 hexamer (complex)
